# From patent CN114591436A (BIOLOGICAL ISLAND LABORATORY; UNIV SCIENCE AND TECHNOLOGY …, dated 2022)
# B1: 单抗PGI_1H10 (VHH)
# VHH: QVQLVQSGGGLVQAGGSLRLSCVVSGFNFSSFDRYTMSWVRQIPGKGLEWVSAINGGGIKTAYADSVKGRFTISRDNAKNTVYLQMNDLKPADTAVYYCTFTRWLVRGDYWGQGTQVTVSS
# B2: 单抗PGI_2F1 (VHH)
# VHH: QVQLVESGGGLVQTGDSLKLSCLASGRTFSSRAMGWFRQAPGKEREFVAAISTSGVLKYYAPSVKGRFTISRDNAKNTMYLEMNSPEPEDTAVYYCAANGPPFGAYWWPTAREYDAWGQGTQVTVSS
# B3: 单抗PGI_1G9 (VHH)
# VHH: QVQLVQSGGGSAHLGGSLRLSCAASGFIFSDYYMAWVRQAPGKEREWVSEINTSGRTYYADSVKGRFTISRDNAKNTLYLQMDSLKPEDTAVYYCYVHRSSIFTNREYWGQGTQVTVSS
# Target: T1, 胃蛋白酶原I (Pepsinogen I) (Homo sapiens (Human), UniProt P0DJD7 63-388, limits assumed)
# T1 construct: also called PGI; PG I
# Assay: ELISA, VHH-pIII in bacterial culture supernatant incubated with PGI antigen; kd derived from binding strength
# T1 sequence (P0DJD7 63-388 limits assumed): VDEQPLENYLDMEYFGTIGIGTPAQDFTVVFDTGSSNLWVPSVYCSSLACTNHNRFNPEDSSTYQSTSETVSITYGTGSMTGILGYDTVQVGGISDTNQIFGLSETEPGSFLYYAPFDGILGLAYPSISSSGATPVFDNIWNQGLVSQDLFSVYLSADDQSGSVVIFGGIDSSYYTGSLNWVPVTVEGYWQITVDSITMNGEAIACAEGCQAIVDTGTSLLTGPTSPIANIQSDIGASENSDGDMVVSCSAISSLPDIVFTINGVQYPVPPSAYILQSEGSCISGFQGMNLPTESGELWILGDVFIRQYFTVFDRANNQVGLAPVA
row,Kd,Binder
1,0.123 µM,B1
2,0.404 µM,B2
3,1.03 µM,B3
